Source: article PMC10987413

biological target: GST-DCL3 F5 (UniProt Q9LXW7); assay: MST; conditions: MST: 50 mM Tris-HCl pH 7.4, 150 mM NaCl, 10 mM MgCl2, 0.01% Tween 20, 100 nM RED-NHS labelled protein, incubation 5 min at room temperature (instrument printed …)
Chain of UniProt Q9LXW7 (Q9LXW7 whole entry): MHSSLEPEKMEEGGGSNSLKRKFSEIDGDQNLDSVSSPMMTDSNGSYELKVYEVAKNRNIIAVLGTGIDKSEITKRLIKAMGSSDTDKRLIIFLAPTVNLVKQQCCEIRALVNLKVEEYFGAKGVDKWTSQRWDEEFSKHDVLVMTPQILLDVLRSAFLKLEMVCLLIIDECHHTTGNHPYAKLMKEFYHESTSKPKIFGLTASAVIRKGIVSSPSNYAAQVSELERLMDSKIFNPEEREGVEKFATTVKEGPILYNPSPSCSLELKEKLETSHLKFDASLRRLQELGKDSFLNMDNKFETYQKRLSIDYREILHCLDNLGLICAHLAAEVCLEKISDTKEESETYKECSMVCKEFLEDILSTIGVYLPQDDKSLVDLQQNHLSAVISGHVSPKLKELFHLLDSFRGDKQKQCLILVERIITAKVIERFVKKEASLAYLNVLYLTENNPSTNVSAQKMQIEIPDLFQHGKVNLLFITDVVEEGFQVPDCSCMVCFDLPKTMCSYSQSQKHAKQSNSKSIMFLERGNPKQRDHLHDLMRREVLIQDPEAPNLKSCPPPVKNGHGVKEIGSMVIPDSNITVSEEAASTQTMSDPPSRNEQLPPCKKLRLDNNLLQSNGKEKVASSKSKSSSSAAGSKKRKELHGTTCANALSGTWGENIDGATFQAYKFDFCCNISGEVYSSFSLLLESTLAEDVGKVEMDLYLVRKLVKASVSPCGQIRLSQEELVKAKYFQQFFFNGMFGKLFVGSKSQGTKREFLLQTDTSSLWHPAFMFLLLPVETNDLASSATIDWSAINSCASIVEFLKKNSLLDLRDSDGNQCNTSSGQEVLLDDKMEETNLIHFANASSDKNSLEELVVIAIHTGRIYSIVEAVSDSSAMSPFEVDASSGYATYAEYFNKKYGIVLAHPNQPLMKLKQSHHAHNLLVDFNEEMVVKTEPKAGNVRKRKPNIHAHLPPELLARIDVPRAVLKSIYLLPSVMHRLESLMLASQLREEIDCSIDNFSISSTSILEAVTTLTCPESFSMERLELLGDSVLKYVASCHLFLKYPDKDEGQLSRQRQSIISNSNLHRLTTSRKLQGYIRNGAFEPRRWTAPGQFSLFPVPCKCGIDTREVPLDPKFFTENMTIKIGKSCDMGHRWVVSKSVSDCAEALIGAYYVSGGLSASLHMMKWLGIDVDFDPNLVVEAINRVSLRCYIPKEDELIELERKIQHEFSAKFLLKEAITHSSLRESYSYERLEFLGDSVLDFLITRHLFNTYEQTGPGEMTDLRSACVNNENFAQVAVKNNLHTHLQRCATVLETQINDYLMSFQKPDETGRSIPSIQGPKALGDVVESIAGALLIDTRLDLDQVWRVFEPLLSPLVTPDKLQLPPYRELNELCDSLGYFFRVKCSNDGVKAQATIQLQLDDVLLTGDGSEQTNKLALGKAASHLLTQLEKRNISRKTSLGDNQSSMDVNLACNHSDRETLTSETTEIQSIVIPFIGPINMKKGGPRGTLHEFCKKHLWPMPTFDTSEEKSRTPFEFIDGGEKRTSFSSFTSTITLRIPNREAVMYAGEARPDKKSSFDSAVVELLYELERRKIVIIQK

Substance	Kd [nM]
21-nt ss-sRNA	1870
24-nt ss-sRNA	1220
55-nt ss-sRNA	1160
AGAAUCUUGAUGAUGCUGCAU / GUGGCAUCAUCAAGAUUCACA [miR172a duplex]	927
UACAAGACACGUGCUGAAGUCAAGUUUGAGGGAACACCCUCGUCAACAGGAUCG / AUCCUGUUGACGAGGGUGUCUCCCUCAAACUUGACUUCAGCACGUGUCUUGUAGU [55-bp ds-sRNA]	582
UCAACAGGAUCGAGCUUAAGG / UUAAGCUCGAUCCUGUUGACG [21-bp ds-sRNA (ds siRGFP)]	575
UCGCUUGGUGCAGGUCGGGAA / CCCGCCUUGCAUCAACUGAAU [miR168a duplex]	1060
UGAAUUUCUGGUAUGGGUCCCGCC / CGGGACCCAUACCAGAAAUUCAUC [24-bp ds-sRNA (dsAtSN1)]	553
